Measurements reported in patent publication US20130123481A1, “MODIFIED NUCLEOSIDES, NUCLEOTIDES, AND NUCLEIC ACIDS, AND USES THEREOF” (MODERNA THERAPEUTICS, priority 2011, published 2013).

Tests used:
[1] = test system: peripheral blood mononuclear cells (PBMC); assay: In Vitro PBMC Studies: Percent modification - G-CSF expression; assay type: cell-based, human; conditions: for G-CSF Expression: 480 ng mRNA
Protocol: 480 ng of G-CSF mRNA modified with 5-methylcytosine (5mC) and pseudouridine (pseudoU) or unmodified G-CSF mRNA was transfected with 0.4 uL of Lipofectamine 2000 into peripheral blood mononuclear cells (PBMC) from three normal blood donors (D1, D2, and D3). […] The supernatant was harvested and run by ELISA 22 hours after transfection to determine the protein expression. The expression of IFN-alpha and TNF-alpha may be a secondary effect from the transfection of the G-CSF mRNA.

[2] = test system: human PBMC; assay: Cytokine Study: PBMC - G-CSF production (G-CSF ELISA); assay type: cell-based; conditions: mRNA with Lipofectamine 2000
Protocol: (§1) The plates were then incubated at 37° C.
(§2) Each condition was done in duplicate.
In the G-CSF ELISA, background signal from the Lipofectamine 2000 (LF2000) untreated condition was subtracted at each time point.

[3] = test system: human PBMC, interferon-alpha (IFN-alpha); assay: Cytokine Study: PBMC - IFN-alpha production (ELISA)
Protocol: as §1, §2

[4] = test system: human PBMC, tumor necrosis factor alpha (TNF-alpha)
Protocol: 50 mL of human blood from two donors was received from Research Blood Components (lots KP30928 and KP30931) in sodium heparin tubes. For each donor, the blood was pooled and diluted to 70 mL with DPBS (SAFC Bioscience 59331C, lot 071M8408) and split evenly between two 50 mL conical tubes. 10 mL of Ficoll Paque (GE Healthcare 17-5442-03, lot 10074400) was gently dispensed below the blood layer. The tubes were centrifuged at 2000 rpm for 30 minutes with low acceleration and braking. The tubes were removed and the buffy coat PBMC layers were gently transferred to a fresh 50 mL conical and washed with DPBS. The tubes were centrifuged at 1450 rpm for 10 minutes.
The supernatant was aspirated and the PBMC pellets were resuspended and washed in 50 mL of DPBS. The tubes were centrifuged at 1250 rpm for 10 minutes. This wash step was repeated, and the PBMC pellets were resuspended in 19 mL of Optimem I (Gibco 11058, lot 1072088) and counted. The cell suspensions were adjusted to a concentration of 3.0×10̂6 cells/mL live cells.
These cells were then plated on five 96 well tissue culture treated round bottom plates (Costar 3799) per donor at 50 uL per well. Within 30 minutes, transfection mixtures were added to each well at a volume of 50 uL per well. After 4 hours post transfection, the media was supplemented with 10 uL of Fetal Bovine Serum (Gibco 10082, lot 1012368)
The plate containing the material to be transfected was incubated for 20 minutes. The transfection mixtures were then transferred to each of the human PBMC plates at 50 uL per well. The plates were then incubated at 37° C. At 2, 4, 8, 20, and 44 hours each plate was removed from the incubator, and the supernatants were frozen.
The ability of unmodified and modified mRNA to produce the encoded protein was assessed (G-CSF production) over time as was the ability of the mRNA to trigger innate immune recognition as measured by interferon-alpha production.

[5] = test system: mice; assay: Intravenous Administration - neutrophil count; assay type: in vivo, mouse; conditions: for Neutrophil: I.V. 50 ug RNA at days 0, 2 and 4, 10% lipoplex
Protocol: Neutrophils were measured at days 1, 5 and 8. Controls included non-specific mammalian RNA or the formulation buffer alone (F.Buffer). The mice were bled at days 1, 5 and 8 to determine the effect of mRNA-encoded human G-CSF to increase neutrophil count. The dosing regimen is shown in Table 21 as are the resulting neutrophil counts (thousands/uL; K/uL).
In Table 21, an asterisk (*) indicates statistical significance at p<0.001 compared to buffer.

[6] = Stability of Modified RNA - storage, gel electrophoresis; assay type: physicochemical
Protocol: Stability experiments were conducted to obtain a better understanding of storage conditions to retain the integrity of modified RNA. […] After the mRNA had been stored for 0 hours, 2 hours, 6 hours, 24 hours, 48 hours, 5 days and 14 days, the mRNA was analyzed by gel electrophoresis using a Bio-Rad EXPERION™ system. The modified, unmodified and lipoplexed G-CSF mRNA was also stored in RNASTABLE® (Biomatrica, Inc. San Diego, Calif.) at 40° C. or water at −80° C. or 40° C. for 35 days before being analyzed by gel electrophoresis.

[7] = test system: Human primary foreskin fibroblasts (BJ fibroblasts); assay: Cell Viability in BJ Fibroblasts (CELL TITER GLO, repeated transfection); assay type: cell-based; conditions: normalized to untreated = 100%
Protocol: Control samples of Lipofectamine 2000 (LF2000) and unmodified G-CSF mRNA were also transfected. The modified mRNA or control samples were transfected daily for 4 days. The viability of the cells after transfection was evaluated 6 hours and 24 hours after the first transfection (Ti, 6 hours or T1, 24 hours), and 24 hours after the second (T2, 24 hours) and fourth transfection (T4, 24 hours).
To determine cell viability, the culture medium was completely removed and the cells were washed once with 600 ul of sterile PBS without Ca2+/Mg2+ (Gibco/Life Technologies, Manassas, Va.) in order to rinse-off loosely attached cells. PBS was removed and discarded. The cleaned fibroblasts in each well were treated with 220 ul of a diluted CELL TITER GLO® (Promega, catalog #G7570) stock solution (the CELL TITER GLO® stock solution was further diluted 1:1 with an equal amount of sterile PBS). A sterile pipet tip was used to scratch the cells off the plate and accelerate the lysis process.
For two time intervals, T1, 24 hours and T2, 24 hours, an alternative protocol was applied. Cells were washed with PBS, as described above, and subsequently trypsinized with Trypsin/EDTA solution (Gibco/Life Technologies, Manassas, Va.). Cells were detached and collected in 500 ul of medium containing trypsin inhibitor. Cells were harvested by centrifugation at 1200 rcf for 5 minutes. The cell pellet was resuspended in 500 ul PBS. This cell suspension was kept on ice, and 100 ul of this was combined with 100 ul of undiluted Cell Titer Glo solution.
All of the CELL TITER GLO® lysates were then incubated at room temperature for 20 minutes. 20 ul of the lysates were transferred to a white opaque polystyrene 96-well plate (Corning, Manassas, Va.) and combined with 100 ul diluted CELL TITER GLO® solution. The plate reader used was from BioTek Synergy H1 (BioTek, Winooski, Vt.) and the absolute values were normalized to signal of the untreated BJ Fibroblasts to 100% cell vitality.

[8] = test system: peripheral blood mononuclear cells (PBMC); assay: Modified RNA transfected in PBMC (0.1-100% modification) - G-CSF expression; assay type: cell-based, human
Protocol: 500 ng of G-CSF mRNA modified with 5-methylcytosine (5mC) and pseudouridine (pseudoU) or unmodified G-CSF mRNA was transfected with 0.4 uL of Lipofectamine 2000 into peripheral blood mononuclear cells (PBMC) from three normal blood donors (D1, D2, and D3). […] The supernatant was harvested 6 hours and 18 hours after transfection and run by ELISA to determine the protein expression. The expression of G-CSF, IFN-alpha, and TNF-alpha for Donor 1 is shown in Table 10, Donor 2 is shown in Table 11 and Donor 3 is shown in Table 12.

[9] = test system: peripheral blood mononuclear cells (PBMC), TNF-alpha; assay: In Vitro PBMC Studies: Percent modification - TNF-alpha expression; assay type: cell-based, human
Protocol: (§3) The supernatant was harvested and run by ELISA 22 hours after transfection to determine the protein expression.

[10] = test system: peripheral blood mononuclear cells (PBMC), IFN-alpha; assay: In Vitro PBMC Studies: Percent modification - IFN-alpha expression; assay type: cell-based, human
Protocol: as §3

[11] = PBMC donor D1, 0.4 uL Lipofectamine 2000, ELISA 22 hours after transfection
[12] = PBMC donor D2, 22 hours after transfection
[13] = PBMC donor D3, 22 hours after transfection

**Q.** Which “G-CSF Expression” value [1, 11] does the source give for “Luciferase: control mRNA encoding luciferase (SEQ ID NO: 3), Cap 1, fully modified with 5-methylcytosine and pseudouridine [reference compound]” here?
**A.** Its value is 90.2 pg/mL.

**Q.** And the “G-CSF Expression” value [1, 12]?
**A.** The value was 0.0 pg/mL.

**Q.** And the “G-CSF Expression” value [1, 13]?
**A.** Its value is 22.1 pg/mL.

**Q.** What about the “G-CSF: 3 Donor Average” value [2] of the same molecule?
**A.** Its value is 18 pg/mL.

B1: G-CSF 5-methyl cytosine/pseudouridine: mRNA encoding human G-CSF (SEQ ID NO: 1), Cap 1, 100% substitution with 5-methyl cytidine and pseudouridine (nucleic acid, listed as Homo Sapiens)
chain: GGGAAAUAAGAGAGAAAAGAAGAGUAAGAAGAAAUAUAAGAGCCACCAUGGCCGGUCCCGCGACCCAAAGCCCCAUGAAACUUAUGGCCCUGCAGUUGCUGCUUUGGCACUCGGCCCUCUGGACAGUCCAAGAAGCGACUCCUCUCGGACCUGCCUCAUCGUUGCCGCAGUCAUUCCUUUUGAAGUGUCUGGAGCAGGUGCGAAAGAUUCAGGGCGAUGGAGCCGCACUCCAAGAGAAGCUCUGCGCGACAUACAAACUUUGCCAUCCCGAGGAGCUCGUACUGCUCGGGCACAGCUUGGGGAUUCCCUGGGCUCCUCUCUCGUCCUGUCCGUCGCAGGCUUUGCAGUUGGCAGGGUGCCUUUCCCAGCUCCACUCCGGUUUGUUCUUGUAUCAGGGACUGCUGCAAGCCCUUGAGGGAAUCUCGCCAGAAUUGGGCCCGACGCUGGACACGUUGCAGCUCGACGUGGCGGAUUUCGCAACAACCAUCUGGCAGCAGAUGGAGGAACUGGGGAUGGCACCCGCGCUGCAGCCCACGCAGGGGGCAAUGCCGGCCUUUGCGUCCGCGUUUCAGCGCAGGGCGGGUGGAGUCCUCGUAGCGAGCCACCUUCAAUCAUUUUUGGAAGUCUCGUACCGGGUGCUGAGACAUCUUGCGCAGCCGUGAAGCGCUGCCUUCUGCGGGGCUUGCCUUCUGGCCAUGCCCUUCUUCUCUCCCUUGCACCUGUACCUCUUGGUCUUUGAAUAAAGCCUGAGUAGGAAG
modifications: Cap1; 5-methylcytidine and pseudouridine
**Q.** For B1, which “IFN-alpha production (in words)” value [3] is on record?
**A.** Its value is “low but detectable levels”.

**Q.** What about the “IFN-alpha: 3 Donor Average” value [3] of the same molecule?
**A.** The value was 141 pg/mL.

**Q.** What about the “G-CSF/IFN-alpha (ratio), PC Ratio” value ([3]; human PBMC, 3 donor averages) of the same molecule?
**A.** The value was 34.

**Q.** What about the “G-CSF: 3 Donor Average” value [2] of the same molecule?
**A.** Its value is 4742 pg/mL.

**Q.** What about the “TNF-alpha production (in words)” value [4] of the same molecule?
**A.** The value was “low but detectable levels”.

**Q.** What about the “TNF-alpha: 3 Donor Average” value [4] of the same molecule?
**A.** The value was 31 pg/mL.

**Q.** What about the “G-CSF/TNF-alpha (ratio), PC Ratio” value ([4]; human PBMC, 3 donor averages) of the same molecule?
**A.** Its value is 153.

B2: G-CSF modified mRNA: control modified G-CSF mRNA (SEQ ID NO: 1, Cap 1), fully modified 5-methylcytosine and pseudouridine, 8.4 nM (nucleic acid, listed as Homo Sapiens)
chain: B1 chain
modifications: Cap1; 5-methylcytosine and pseudouridine
**Q.** For B2, which “increase in neutrophil count above control at day 5” value ([5]; intravenous administration) is on record?
**A.** Its value is “four to five fold increase”.

B3: G-CSF (no modification): human G-CSF mRNA having no modifications, formulated in 10% lipoplex (RNAIMAX) (nucleic acid, listed as Homo Sapiens)
chain: B1 chain
modifications: Cap1; polyA tail; lipoplex
**Q.** With B3 as the molecule, how does the Neutrophil ([5]; Day 1) read?
**A.** Its Neutrophil is 1.88 K/uL.

**Q.** What about the Neutrophil ([5]; Day 5) of the same molecule?
**A.** The Neutrophil was 1.95 K/uL.

**Q.** And the Neutrophil ([5]; Day 8)?
**A.** The Neutrophil was 2.09 K/uL.

B4: unmodified G-CSF: Unmodified G-CSF mRNA (SEQ ID NO: 1, Cap1), storage stability (nucleic acid, listed as Homo Sapiens)
chain: B1 chain
modifications: Cap1
**Q.** With B4 as the molecule, how does the “stable out to” value ([6]; stored at 25° C.) read?
**A.** Its value is 48 h.

**Q.** What about the “stable out to” value ([6]; stored at 37° C.) of the same molecule?
**A.** The value was 6 h.

**Q.** What about the “stable out to” value ([6]; stored at 50° C.) of the same molecule?
**A.** The value was 2 h.

**Q.** And the “Percent Viability T1, 6 hours” value ([7]; T1, 6 hours)?
**A.** The value was 101%.

**Q.** What about the “Percent Viability T1, 24 hours” value ([7]; T1, 24 hours) of the same molecule?
**A.** Its value is 72%.

**Q.** What about the “Percent Viability T2, 24 hours” value ([7]; T2, 24 hours) of the same molecule?
**A.** Its value is 74%.

**Q.** And the “Percent Viability T4, 24 hours” value ([7]; T4, 24 hours)?
**A.** The value was 42%.

B5: 100% modification: G-CSF mRNA (SEQ ID NO: 1, Cap1) completely modified with 5mC and pseudoU (nucleic acid, listed as Homo Sapiens)
chain: B1 chain
modifications: Cap1; 5-methylcytidine and pseudouridine
**Q.** With B5 as the molecule, how does the “G-CSF Expression” value [1, 11] read?
**A.** The value was 1968.9 pg/mL.

**Q.** And the “G-CSF Expression” value [1, 12]?
**A.** The value was 2595.6 pg/mL.

**Q.** And the “G-CSF Expression” value [1, 13]?
**A.** The value was 2835.7 pg/mL.

**Q.** And the “Average G-CSF” value ([1]; average of PBMC donors D1-D3)?
**A.** The value was 2466 pg/mL.

**Q.** And the G-CSF ([8]; PBMC Donor 1, 500 ng mRNA, 6 hours after transfection)?
**A.** Its G-CSF is 1815 pg/mL.

**Q.** And the G-CSF ([8]; PBMC Donor 1, 18 hours after transfection)?
**A.** The G-CSF was 2224 pg/mL.

**Q.** What about the G-CSF ([8]; PBMC Donor 2, 6 hours after transfection) of the same molecule?
**A.** The G-CSF was 2184 pg/mL.

**Q.** And the G-CSF ([8]; PBMC Donor 2, 18 hours after transfection)?
**A.** Its G-CSF is 2432 pg/mL.

**Q.** And the G-CSF ([8]; PBMC Donor 3, 6 hours after transfection)?
**A.** The G-CSF was 6086 pg/mL.

**Q.** And the G-CSF ([8]; PBMC Donor 3, 18 hours after transfection)?
**A.** The G-CSF was 7549 pg/mL.

**Q.** What about the “Average TNF-a” value [9] of the same molecule?
**A.** The value was 47 pg/mL.

**Q.** And the “ratio of protein/cytokine production relative to natural G-CSF mRNA, TNF-alpha” value ([9]; PBMC, Table 9)?
**A.** Its value is 27 fold.

**Q.** What about the “G-CSF/TNF-alpha (PC ratio)” value ([9]; calculated from Tables 7 and 8) of the same molecule?
**A.** Its value is 52.

**Q.** And the “Average IFN-a” value [10]?
**A.** The value was 153 pg/mL.

**Q.** What about the “ratio of protein/cytokine production relative to natural G-CSF mRNA, IFN-alpha” value ([10]; PBMC, Table 9) of the same molecule?
**A.** Its value is 100 fold.

**Q.** What about the “G-CSF/IFN-alpha (PC ratio)” value ([10]; calculated from Tables 7 and 8) of the same molecule?
**A.** Its value is 16.
